Results as given in patent publication US20070077617.
“Also recorded” adds a separate entry of the source.

Columns and labels:
[1] = target: human calcitonin precursor fusion protein PCT
[2] = target: fusion protein PA4
[3] = target: fusion protein PA3
[4] = target: fusion protein PA1′A3′
[5] = target: fusion protein PRW
[6] = target: fusion protein PRL
[7] = target: fusion protein PRE
[8] = target: fusion protein PA1A3′
[9] = target: human adrenocorticotropic hormone(1-24) fusion protein PAC
[10] = target: fusion protein PA4D23′
[11] = target: fusion protein PA4′
[12] = target: fusion protein PRK
[13] = target: fusion protein PRQ
[14] = target: fusion protein PA2′3′
[15] = target: fusion protein PRH
[16] = target: fusion protein PRD
[17] = target: fusion protein PRMT
[18] = target: fusion protein PA5′
[19] = target: fusion protein PA5
[20] = target: fusion protein PA7
[21] = target: fusion protein PRP
[22] = target: fusion protein PRY
[23] = target: fusion protein PA2
[24] = target: fusion protein PRM
[25] = target: fusion protein PRA
[26] = target: fusion protein PA3′
[27] = target: fusion protein PRF
[28] = target: fusion protein PA2′
[29] = target: fusion protein PA3D23′
[30] = target: fusion protein PRI
[31] = target: fusion protein PA5D23′
[32] = target: fusion protein PA10
[33] = target: fusion protein PA6
[34] = target: fusion protein PA323′
[35] = target: fusion protein PRC
[36] = target: fusion protein PA9
[37] = target: fusion protein PRT
[38] = target: fusion protein PMT
[39] = target: fusion protein PA23′
[40] = target: fusion protein PRV
[41] = target: fusion protein PA8
[42] = target: fusion protein PA
[43] = target: fusion protein PRN
[44] = target: fusion protein PRG
[45] = target: fusion protein PRR
[46] = target: fusion protein PRS

Chain of fusion protein PMT (chain, as listed by the source): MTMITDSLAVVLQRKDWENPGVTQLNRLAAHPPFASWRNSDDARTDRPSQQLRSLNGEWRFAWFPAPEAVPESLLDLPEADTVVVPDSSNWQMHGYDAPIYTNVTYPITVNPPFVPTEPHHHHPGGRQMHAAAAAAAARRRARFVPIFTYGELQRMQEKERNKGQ
Chain of fusion protein PA323′ (chain, as listed by the source): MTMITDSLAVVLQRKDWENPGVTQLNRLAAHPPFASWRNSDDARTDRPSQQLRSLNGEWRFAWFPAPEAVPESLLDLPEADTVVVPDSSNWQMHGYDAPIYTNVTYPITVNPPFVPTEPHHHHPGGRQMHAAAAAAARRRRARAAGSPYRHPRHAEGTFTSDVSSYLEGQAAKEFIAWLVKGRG
Chain of fusion protein PA1′A3′ (chain, as listed by the source): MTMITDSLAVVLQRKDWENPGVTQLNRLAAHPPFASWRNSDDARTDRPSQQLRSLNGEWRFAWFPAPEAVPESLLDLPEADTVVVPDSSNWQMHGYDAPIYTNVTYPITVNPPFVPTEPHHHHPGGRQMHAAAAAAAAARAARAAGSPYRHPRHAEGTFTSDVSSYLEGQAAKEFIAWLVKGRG
Chain of fusion protein PA3′ (chain, as listed by the source): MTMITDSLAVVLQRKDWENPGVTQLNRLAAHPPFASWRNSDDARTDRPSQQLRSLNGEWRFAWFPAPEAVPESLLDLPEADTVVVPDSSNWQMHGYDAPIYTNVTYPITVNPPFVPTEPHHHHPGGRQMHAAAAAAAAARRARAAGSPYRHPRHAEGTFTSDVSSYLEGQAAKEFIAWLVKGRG
Chain of fusion protein PA3D23′ (chain, as listed by the source): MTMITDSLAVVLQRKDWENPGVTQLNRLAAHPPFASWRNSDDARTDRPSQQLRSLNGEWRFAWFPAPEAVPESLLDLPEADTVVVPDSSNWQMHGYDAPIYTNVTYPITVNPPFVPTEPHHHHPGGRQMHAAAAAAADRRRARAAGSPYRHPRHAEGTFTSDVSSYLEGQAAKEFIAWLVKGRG
Chain of fusion protein PA4D23′ (chain, as listed by the source): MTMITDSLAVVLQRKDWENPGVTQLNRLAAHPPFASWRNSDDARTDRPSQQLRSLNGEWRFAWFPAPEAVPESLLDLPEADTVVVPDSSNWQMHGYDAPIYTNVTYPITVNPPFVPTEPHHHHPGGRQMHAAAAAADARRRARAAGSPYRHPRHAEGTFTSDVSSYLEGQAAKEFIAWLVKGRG
Chain of fusion protein PA5D23′ (chain, as listed by the source): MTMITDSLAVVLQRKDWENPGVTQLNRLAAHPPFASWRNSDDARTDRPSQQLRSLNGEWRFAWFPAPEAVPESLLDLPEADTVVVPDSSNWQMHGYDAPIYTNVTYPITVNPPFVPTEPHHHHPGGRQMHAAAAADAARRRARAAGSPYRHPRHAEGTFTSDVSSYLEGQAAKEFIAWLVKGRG
Chain of fusion protein PA2′ (chain, as listed by the source): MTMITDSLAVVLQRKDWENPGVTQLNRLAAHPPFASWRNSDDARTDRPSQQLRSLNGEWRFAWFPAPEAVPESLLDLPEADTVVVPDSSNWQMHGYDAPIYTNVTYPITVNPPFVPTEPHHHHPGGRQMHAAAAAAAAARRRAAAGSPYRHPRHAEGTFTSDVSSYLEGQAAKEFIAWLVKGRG
Chain of fusion protein PA7 (chain, as listed by the source): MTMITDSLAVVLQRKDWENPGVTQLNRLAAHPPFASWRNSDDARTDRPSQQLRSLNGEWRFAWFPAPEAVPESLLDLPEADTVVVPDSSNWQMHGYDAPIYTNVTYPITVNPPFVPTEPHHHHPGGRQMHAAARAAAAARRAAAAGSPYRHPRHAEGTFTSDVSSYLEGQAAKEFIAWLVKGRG
Chain of fusion protein PA9 (chain, as listed by the source): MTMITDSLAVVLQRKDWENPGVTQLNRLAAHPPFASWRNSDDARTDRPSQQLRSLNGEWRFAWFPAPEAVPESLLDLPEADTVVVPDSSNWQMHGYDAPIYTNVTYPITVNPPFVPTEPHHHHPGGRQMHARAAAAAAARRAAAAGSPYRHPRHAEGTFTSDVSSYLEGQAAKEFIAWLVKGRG
Chain of fusion protein PA3 (chain, as listed by the source): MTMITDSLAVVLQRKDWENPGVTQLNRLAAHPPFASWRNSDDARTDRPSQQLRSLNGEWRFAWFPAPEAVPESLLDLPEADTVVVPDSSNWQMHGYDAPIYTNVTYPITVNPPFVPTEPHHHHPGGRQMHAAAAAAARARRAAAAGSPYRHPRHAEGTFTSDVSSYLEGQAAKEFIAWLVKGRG
Chain of fusion protein PA2 (chain, as listed by the source): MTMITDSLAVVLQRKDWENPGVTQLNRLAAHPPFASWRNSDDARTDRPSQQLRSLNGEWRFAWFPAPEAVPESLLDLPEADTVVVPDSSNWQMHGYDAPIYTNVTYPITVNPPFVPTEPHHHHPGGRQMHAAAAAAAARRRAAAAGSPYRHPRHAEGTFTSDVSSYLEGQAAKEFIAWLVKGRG
Chain of fusion protein PA4′ (chain, as listed by the source): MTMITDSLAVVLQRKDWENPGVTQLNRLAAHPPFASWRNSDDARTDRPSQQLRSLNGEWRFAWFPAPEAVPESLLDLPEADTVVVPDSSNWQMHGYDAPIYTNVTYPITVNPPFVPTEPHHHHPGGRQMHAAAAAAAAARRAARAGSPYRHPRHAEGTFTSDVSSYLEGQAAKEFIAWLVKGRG
Chain of fusion protein PA4 (chain, as listed by the source): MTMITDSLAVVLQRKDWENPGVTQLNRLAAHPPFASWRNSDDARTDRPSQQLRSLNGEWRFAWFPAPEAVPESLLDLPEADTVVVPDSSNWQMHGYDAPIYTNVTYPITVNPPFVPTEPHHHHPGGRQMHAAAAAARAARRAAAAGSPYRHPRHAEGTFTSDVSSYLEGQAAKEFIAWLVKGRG
Chain of fusion protein PA10 (chain, as listed by the source): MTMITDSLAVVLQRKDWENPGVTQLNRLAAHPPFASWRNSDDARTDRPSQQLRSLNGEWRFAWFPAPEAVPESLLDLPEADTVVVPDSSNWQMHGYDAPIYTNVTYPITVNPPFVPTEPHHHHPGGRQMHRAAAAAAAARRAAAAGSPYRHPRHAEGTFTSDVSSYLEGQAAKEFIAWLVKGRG
Chain of fusion protein PA5′ (chain, as listed by the source): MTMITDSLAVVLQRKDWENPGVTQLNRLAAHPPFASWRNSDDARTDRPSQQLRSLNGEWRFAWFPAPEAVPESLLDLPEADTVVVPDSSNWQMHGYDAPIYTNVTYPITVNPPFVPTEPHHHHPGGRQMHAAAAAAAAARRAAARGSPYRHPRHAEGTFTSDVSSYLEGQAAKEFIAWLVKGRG
Chain of fusion protein PA23′ (chain, as listed by the source): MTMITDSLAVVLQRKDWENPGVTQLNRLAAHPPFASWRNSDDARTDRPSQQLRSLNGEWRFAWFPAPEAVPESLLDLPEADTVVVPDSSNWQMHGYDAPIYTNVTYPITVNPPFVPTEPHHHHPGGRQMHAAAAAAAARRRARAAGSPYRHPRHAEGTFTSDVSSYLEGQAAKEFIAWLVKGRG
Chain of fusion protein PA2′3′ (chain, as listed by the source): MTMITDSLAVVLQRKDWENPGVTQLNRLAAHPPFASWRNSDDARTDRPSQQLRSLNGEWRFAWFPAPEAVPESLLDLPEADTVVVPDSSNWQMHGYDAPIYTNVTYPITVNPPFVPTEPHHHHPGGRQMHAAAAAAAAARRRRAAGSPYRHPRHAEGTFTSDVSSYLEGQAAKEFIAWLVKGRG
Chain of fusion protein PA8 (chain, as listed by the source): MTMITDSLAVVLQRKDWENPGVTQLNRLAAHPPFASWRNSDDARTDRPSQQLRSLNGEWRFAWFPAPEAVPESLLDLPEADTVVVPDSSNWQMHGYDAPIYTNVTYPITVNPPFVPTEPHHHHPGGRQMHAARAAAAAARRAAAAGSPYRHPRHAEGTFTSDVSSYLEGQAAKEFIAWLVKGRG
Chain of fusion protein PA6 (chain, as listed by the source): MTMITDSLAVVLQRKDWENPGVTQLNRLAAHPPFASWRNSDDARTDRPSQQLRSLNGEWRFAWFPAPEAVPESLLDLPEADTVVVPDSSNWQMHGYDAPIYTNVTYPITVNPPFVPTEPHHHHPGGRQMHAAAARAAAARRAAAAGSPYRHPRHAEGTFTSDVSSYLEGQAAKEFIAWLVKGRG
Chain of fusion protein PA1A3′ (chain, as listed by the source): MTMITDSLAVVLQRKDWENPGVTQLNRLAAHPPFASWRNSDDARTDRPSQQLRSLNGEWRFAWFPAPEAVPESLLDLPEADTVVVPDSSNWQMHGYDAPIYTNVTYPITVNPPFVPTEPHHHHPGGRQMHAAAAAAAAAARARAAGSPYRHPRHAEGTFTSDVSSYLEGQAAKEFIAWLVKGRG
Chain of fusion protein PA5 (chain, as listed by the source): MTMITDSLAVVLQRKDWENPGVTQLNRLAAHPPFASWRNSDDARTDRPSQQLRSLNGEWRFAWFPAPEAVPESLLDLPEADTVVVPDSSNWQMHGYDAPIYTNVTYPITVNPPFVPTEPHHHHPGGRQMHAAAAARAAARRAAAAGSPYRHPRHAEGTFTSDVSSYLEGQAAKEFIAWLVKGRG
Chain of fusion protein PRI (chain, as listed by the source): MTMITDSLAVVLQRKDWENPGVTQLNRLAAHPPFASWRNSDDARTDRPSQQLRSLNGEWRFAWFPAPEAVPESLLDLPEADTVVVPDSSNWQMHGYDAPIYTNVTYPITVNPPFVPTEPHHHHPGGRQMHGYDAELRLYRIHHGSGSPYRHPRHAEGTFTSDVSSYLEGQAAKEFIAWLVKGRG
Chain of fusion protein PRMT (chain, as listed by the source): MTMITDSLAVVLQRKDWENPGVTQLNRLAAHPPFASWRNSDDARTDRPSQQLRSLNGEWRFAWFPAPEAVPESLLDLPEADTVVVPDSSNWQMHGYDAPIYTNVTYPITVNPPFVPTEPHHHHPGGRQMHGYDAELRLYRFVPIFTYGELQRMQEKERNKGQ
Chain of fusion protein PRR (chain, as listed by the source): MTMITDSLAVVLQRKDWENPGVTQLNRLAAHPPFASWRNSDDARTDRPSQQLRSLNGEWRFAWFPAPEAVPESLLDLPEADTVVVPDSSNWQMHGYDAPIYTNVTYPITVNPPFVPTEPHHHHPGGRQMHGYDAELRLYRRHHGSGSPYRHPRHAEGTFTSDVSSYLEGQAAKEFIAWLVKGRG

B1: OmpT protease (wild-type, E. coli mature OmpT protease) (protein)
chain: STETLSFTPDNINADISLGTLSGKTKERVYLAEEGGRKVSQLDWKFNNAAIIKGAINWDLMPQISIGAAGWTTLGSRGGNMVDQDWMDSSNPGTWTDESRHPDTQLNYANEFDLNIKGWLLNEPNYRLGLMAGYQESRYSFTARGGSYIYSSEEGFRDDIGSFPNGERAIGYKQRFKMPYIGLTGSYRYEDFELGGTFKYSGWVESSDNDEHYDPGKRITYRSKVKDQNYYSVAVNAGYYVTPNAKVYVEGAWNRVTNKKGNTSLYDHNNNTSDYSKNGAGIENYNFITTAGLKYTF
cleavage (HPLC, mass analysis) [1]: The fusion protein PCT was cleaved at Arg^139-Arg^140 and Arg^140-Arg^141 by wild-type OmpT protease, releasing RRAR-CT and RAR-CT
cleavage (HPLC, mass analysis) [2]: All of the PAn proteins underwent cleavage by OmpT protease at the same site as PA
cleavage efficiency against PA [2]: PA4 had the highest cleavage efficiency of about 5 times that of PA
cleavage (HPLC, mass analysis) [3]: All of the PAn proteins underwent cleavage by OmpT protease at the same site as PA
cleavage efficiency against PA [3]: Increase in cleavage efficiency was seen for all of the PAn proteins except for PA2 and PA2′
cleavage (HPLC, mass analysis) [4]: PA1A3′ and PA1′A3′ were both cleaved at Arg^143-Ala^144; also recorded: Cleavage was also confirmed at Arg^140-Ala^141 in PA1′A3′
cleavage efficiency against PA [4]: all of the cleavage efficiencies were lower than the cleavage efficiency at Arg^140-Arg^141 of PA
relative cleavage efficiency [5]: less than 3%
relative cleavage efficiency [6]: less than 3%
relative cleavage efficiency [7]: less than 3%
cleavage (HPLC, mass analysis) [8]: PA1A3′ and PA1′A3′ were both cleaved at Arg^143-Ala^144
cleavage efficiency against PA [8]: all of the cleavage efficiencies were lower than the cleavage efficiency at Arg^140-Arg^141 of PA
cleavage (HPLC, mass analysis) [9]: The fusion protein PAC was cleaved at Arg^143-Ser^144 by wild-type OmpT protease to release human adrenocorticotropic hormone(1-24)
cleavage (HPLC, mass analysis) [10]: the major cleavage site of PA5D23′, PA4D23′ and PA3D23′ is Arg^143-Ala^144
cleavage at Arg^139-Arg^140 and Arg^140-Arg^141 [10]: no cleavage was detected at Arg^139-Arg^140 and Arg^140-Arg^141 as was detected with PA23′
cleavage efficiency at Arg^143-Ala^144 against Arg^140-Arg^141 of PA [10]: low compared to PA23′, but twice the cleavage efficiency at Arg^140-Arg^141 of PA
cleavage (HPLC, mass analysis) [11]: All of the PAn proteins underwent cleavage by OmpT protease at the same site as PA
cleavage efficiency against PA [11]: Increase in cleavage efficiency was seen for all of the PAn proteins except for PA2 and PA2′
relative cleavage efficiency [12]: 88%
relative cleavage efficiency [13]: less than 3%
cleavage (HPLC, mass analysis) [14]: It was confirmed that PA23′, PA323′ and PA2′3′ are cleaved at Arg^143-Ala^144
cleavage efficiency at Arg^143-Ala^144 against Arg^140-Arg^141 of PA [14]: low at 63% of the cleavage efficiency at Arg^140-Arg^141 of PA
relative cleavage efficiency [15]: less than 3%
relative cleavage efficiency [16]: less than 3%
cleavage (SDS-PAGE) [17]: no cleavage of PRMT was detected
cleavage (HPLC, mass analysis) [18]: All of the PAn proteins underwent cleavage by OmpT protease at the same site as PA
cleavage efficiency against PA [18]: Increase in cleavage efficiency was seen for all of the PAn proteins except for PA2 and PA2′
cleavage (HPLC, mass analysis) [19]: All of the PAn proteins underwent cleavage by OmpT protease at the same site as PA
cleavage efficiency against PA [19]: Increase in cleavage efficiency was seen for all of the PAn proteins except for PA2 and PA2′
cleavage (HPLC, mass analysis) [20]: All of the PAn proteins underwent cleavage by OmpT protease at the same site as PA
cleavage efficiency against PA [20]: Increase in cleavage efficiency was seen for all of the PAn proteins except for PA2 and PA2′
relative cleavage efficiency [21]: less than 3%
relative cleavage efficiency [22]: < 3%
cleavage (HPLC, mass analysis) [23]: All of the PAn proteins underwent cleavage by OmpT protease at the same site as PA, while PA2, PA2′ and PA3′ also underwent cleavage at other sites
cleavage efficiency against PA [23]: the cleavage efficiencies of PA2 and PA2′ were reduced to about ⅓
relative cleavage efficiency [24]: < 3%
relative cleavage efficiency [25]: 5.4%
cleavage (HPLC, mass analysis) [26]: All of the PAn proteins underwent cleavage by OmpT protease at the same site as PA, while PA2, PA2′ and PA3′ also underwent cleavage at other sites
cleavage efficiency against PA [26]: Increase in cleavage efficiency was seen for all of the PAn proteins except for PA2 and PA2′
cleavage efficiency at Arg^140-Arg^141 (PA = 100%) [26]: cleavage efficiencies: 220%, 73%
cleavage efficiency at Arg^143-Ala^144 (PA = 100%) [26]: cleavage efficiencies: 220%, 73%
relative cleavage efficiency [27]: < 3%
cleavage (HPLC, mass analysis) [28]: All of the PAn proteins underwent cleavage by OmpT protease at the same site as PA, while PA2, PA2′ and PA3′ also underwent cleavage at other sites
cleavage efficiency against PA [28]: the cleavage efficiencies of PA2 and PA2′ were reduced to about ⅓
cleavage (HPLC, mass analysis) [29]: the major cleavage site of PA5D23′, PA4D23′ and PA3D23′ is Arg^143-Ala^144
cleavage at Arg^139-Arg^140 and Arg^140-Arg^141 [29]: no cleavage was detected at Arg^139-Arg^140 and Arg^140-Arg^141, similar to PA4D23′
cleavage efficiency at Arg^143-Ala^144 against Arg^140-Arg^141 of PA [29]: about the same as the cleavage efficiency at Arg^140-Arg^141 of PA, and lower than PA4D23′
relative cleavage efficiency [30]: < 3%
cleavage (HPLC, mass analysis) [31]: the major cleavage site of PA5D23′, PA4D23′ and PA3D23′ is Arg^143-Ala^144
cleavage at Arg^140-Arg^141 [31]: cleavage was also observed at Arg^140-Arg^141
cleavage efficiency at Arg^143-Ala^144 against Arg^140-Arg^141 of PA [31]: 1.9 times the cleavage efficiency at Arg^140-Arg^141 of PA
cleavage (HPLC, mass analysis) [32]: All of the PAn proteins underwent cleavage by OmpT protease at the same site as PA
cleavage efficiency against PA [32]: Increase in cleavage efficiency was seen for all of the PAn proteins except for PA2 and PA2′
cleavage (HPLC, mass analysis) [33]: All of the PAn proteins underwent cleavage by OmpT protease at the same site as PA
cleavage efficiency against PA [33]: Increase in cleavage efficiency was seen for all of the PAn proteins except for PA2 and PA2′
cleavage (HPLC, mass analysis) [34]: It was confirmed that PA23′, PA323′ and PA2′3′ are cleaved at Arg^143-Ala^144
cleavage at Arg^140-Arg^141 against Arg^143-Ala^144 [34]: at 59% the cleavage efficiency at Arg^143-Ala^144
cleavage efficiency at Arg^143-Ala^144 against Arg^140-Arg^141 of PA [34]: also 2.9 times the cleavage efficiency at Arg^140-Arg^141 of PA
relative cleavage efficiency [35]: 3.1%
cleavage (HPLC, mass analysis) [36]: All of the PAn proteins underwent cleavage by OmpT protease at the same site as PA
cleavage efficiency against PA [36]: Increase in cleavage efficiency was seen for all of the PAn proteins except for PA2 and PA2′
relative cleavage efficiency [37]: < 3%
cleavage (SDS-PAGE, HPLC) [38]: cleavage of the fusion protein PMT by OmpT protease was confirmed
release of human motilin (cleavage at Arg^143-Phe^144) [38]: only a very slight amount of peptide cleavage fragment of Arg^143-Phe^144, i.e. human motilin, was detected by mass analysis
relative cleavage efficiency: RAR-motilin (Arg^140-Arg^141) ([38]; scale: relative): 23
relative cleavage efficiency: RRAR-motilin (Arg^139-Arg^140) ([38]; scale: relative): 100
cleavage (HPLC, mass analysis) [39]: It was confirmed that PA23′, PA323′ and PA2′3′ are cleaved at Arg^143-Ala^144
cleavage efficiency at Arg^143-Ala^144 against Arg^140-Arg^141 of PA [39]: 2.9 times the cleavage efficiency at Arg^140-Arg^141 of PA
relative cleavage efficiency [40]: 3.5%
cleavage (HPLC, mass analysis) [41]: All of the PAn proteins underwent cleavage by OmpT protease at the same site as PA
cleavage efficiency against PA [41]: Increase in cleavage efficiency was seen for all of the PAn proteins except for PA2 and PA2′
cleavage efficiency (reference) [42]: the cleavage efficiency of the fusion protein PA is 100%
relative cleavage efficiency [43]: < 3%
relative cleavage efficiency [44]: less than 3%
relative cleavage efficiency [45]: 100%
relative cleavage efficiency [46]: 3.9%
